The values below come from PMC2191747 (The Journal of Experimental Medicine, 1994).

Common to all, as to assay: cell-cell adhesion assay
The target in one assay is human CD58 K34A (human) (UniProt P19256).
The next assay deals with T1, human CD58 D33A (human, UniProt P19256 29-250, D33A).
T1 sequence (looked up): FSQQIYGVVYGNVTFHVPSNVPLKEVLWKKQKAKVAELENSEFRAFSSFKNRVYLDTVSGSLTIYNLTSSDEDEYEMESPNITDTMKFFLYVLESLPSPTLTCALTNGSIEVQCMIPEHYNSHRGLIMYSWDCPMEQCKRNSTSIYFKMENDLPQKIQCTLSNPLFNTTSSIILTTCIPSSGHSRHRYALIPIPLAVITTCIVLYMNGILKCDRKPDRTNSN

The next assay has as its target T2, human CD58 K30A (human, UniProt P19256 29-250, K30A).
T2 sequence (looked up): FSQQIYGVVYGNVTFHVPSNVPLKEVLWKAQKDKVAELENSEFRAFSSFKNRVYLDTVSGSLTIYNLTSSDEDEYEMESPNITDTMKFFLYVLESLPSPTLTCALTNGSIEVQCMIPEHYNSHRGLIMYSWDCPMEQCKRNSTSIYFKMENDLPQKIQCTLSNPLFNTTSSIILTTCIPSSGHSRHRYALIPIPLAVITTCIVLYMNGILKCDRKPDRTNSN

In the next assay the target is T3, human CD58 E25A (human, UniProt P19256 29-250, E25A).
T3 sequence (looked up): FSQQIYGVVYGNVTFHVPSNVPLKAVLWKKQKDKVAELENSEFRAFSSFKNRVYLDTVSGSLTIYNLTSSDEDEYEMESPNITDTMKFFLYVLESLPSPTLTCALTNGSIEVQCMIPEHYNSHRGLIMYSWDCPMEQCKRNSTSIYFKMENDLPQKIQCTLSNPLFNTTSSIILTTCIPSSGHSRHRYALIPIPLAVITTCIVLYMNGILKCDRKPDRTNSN

The next assay concerns the target T4, human CD58 R44A (human, UniProt P19256 29-250, R44A).
T4 sequence (looked up): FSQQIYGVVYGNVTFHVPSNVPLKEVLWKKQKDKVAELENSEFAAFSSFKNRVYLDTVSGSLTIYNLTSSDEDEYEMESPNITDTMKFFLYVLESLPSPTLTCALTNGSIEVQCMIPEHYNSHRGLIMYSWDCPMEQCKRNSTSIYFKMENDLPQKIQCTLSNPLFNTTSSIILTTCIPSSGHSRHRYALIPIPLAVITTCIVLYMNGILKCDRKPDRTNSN

The target in another assay is T5, human CD58 E76A (human, UniProt P19256 29-250, E76A).
T5 sequence (looked up): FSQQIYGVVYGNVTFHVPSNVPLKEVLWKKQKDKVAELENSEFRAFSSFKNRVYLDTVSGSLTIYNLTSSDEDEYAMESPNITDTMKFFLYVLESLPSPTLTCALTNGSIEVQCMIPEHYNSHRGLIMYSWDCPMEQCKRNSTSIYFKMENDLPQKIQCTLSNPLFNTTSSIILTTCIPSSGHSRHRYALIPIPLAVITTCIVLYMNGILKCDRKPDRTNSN

The next assay concerns the target T6, human CD58 K87A (human, UniProt P19256 29-250, K87A).
T6 sequence (looked up): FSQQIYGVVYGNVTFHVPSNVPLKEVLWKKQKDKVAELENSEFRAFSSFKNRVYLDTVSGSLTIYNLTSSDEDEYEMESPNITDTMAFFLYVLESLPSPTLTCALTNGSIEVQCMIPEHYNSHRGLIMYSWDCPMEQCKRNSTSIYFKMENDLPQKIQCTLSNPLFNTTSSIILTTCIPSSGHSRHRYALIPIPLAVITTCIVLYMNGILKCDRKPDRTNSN

A further assay deals with T7, human CD58 E37A (human, UniProt P19256 29-250, E37A).
T7 sequence (looked up): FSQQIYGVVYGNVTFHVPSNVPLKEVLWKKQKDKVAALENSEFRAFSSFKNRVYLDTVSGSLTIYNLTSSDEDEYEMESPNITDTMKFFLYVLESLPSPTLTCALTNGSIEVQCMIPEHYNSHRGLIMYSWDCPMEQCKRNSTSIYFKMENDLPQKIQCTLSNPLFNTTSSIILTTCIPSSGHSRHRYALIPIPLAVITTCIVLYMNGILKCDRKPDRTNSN

In the case of “human CD2 (from UniProt P06729 25-351) (receptor)”, in the assay with human CD58 K34A (human), the % binding relative to wtCD58 is 1%.

B1: human CD2 (receptor, human (endogenous in Jurkat), UniProt P06729 25-351, looked up)
chain: KEITNALETWGALGQDINLDIPSFQMSDDIDDIKWEKTSDKKKIAQFRKEKETFKEKDTYKLFKNGTLKIKHLKTDDQDIYKVSIYDTKGKNVLEKIFDLKIQERVSKPKISWTCINTTLTCEVMNGTDPELNLYQDGKHLKLSQRVITHKWTTSLSAKFKCTAGNKVSKESSVEPVSCPEKGLDIYLIIGICGGGSLLMVFVALLVFYITKRKKQRSRRNDEELETRAHRVATEERGRKPHQIPASTPQNPATSQHPPPPPGHRSQAPSHRPPPPGHRVQHQPQKRPPAPSGTQVHQQKGPPLPRPRVQPKPPHGAAENSLSPSSN
Consider B1, for which the “% binding relative to wtCD58” value in the assay with human CD58 D33A was 26%; with human CD58 K30A, 64%; with human CD58 E25A, 68%; with human CD58 R44A it was 79%; in the assay with human CD58 E76A, 107%; with human CD58 K87A it was less than 30%. Moreover, the “% binding relative to wtCD58” value with human CD58 E37A was less than 30%.
